Source: US20210046160A1 (Synthorx, Inc., priority 2019, published 2021)

Target: T1, IL-2 receptor βγ complex (IL-2Rβ and IL-2Rγ subunits) (Homo sapiens, UniProt P14784+P31785)
T1 construct: host or cells: recombinant human U2OS cell line (PathHunter)
T1 sequence (P14784 27-551): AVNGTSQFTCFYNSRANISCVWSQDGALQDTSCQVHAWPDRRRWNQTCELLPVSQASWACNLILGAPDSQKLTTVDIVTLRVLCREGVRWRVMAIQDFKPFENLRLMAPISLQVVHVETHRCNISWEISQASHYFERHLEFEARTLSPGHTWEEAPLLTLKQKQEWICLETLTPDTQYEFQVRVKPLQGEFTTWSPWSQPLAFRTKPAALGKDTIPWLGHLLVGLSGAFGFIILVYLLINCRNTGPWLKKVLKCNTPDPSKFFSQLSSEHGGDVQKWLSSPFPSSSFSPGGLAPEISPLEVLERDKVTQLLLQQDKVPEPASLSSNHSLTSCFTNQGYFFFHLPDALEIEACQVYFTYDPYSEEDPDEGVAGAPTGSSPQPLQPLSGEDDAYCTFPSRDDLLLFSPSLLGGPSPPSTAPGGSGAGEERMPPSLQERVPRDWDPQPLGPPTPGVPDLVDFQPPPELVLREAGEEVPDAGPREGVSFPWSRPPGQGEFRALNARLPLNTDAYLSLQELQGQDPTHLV
T1 sequence (P31785 23-369): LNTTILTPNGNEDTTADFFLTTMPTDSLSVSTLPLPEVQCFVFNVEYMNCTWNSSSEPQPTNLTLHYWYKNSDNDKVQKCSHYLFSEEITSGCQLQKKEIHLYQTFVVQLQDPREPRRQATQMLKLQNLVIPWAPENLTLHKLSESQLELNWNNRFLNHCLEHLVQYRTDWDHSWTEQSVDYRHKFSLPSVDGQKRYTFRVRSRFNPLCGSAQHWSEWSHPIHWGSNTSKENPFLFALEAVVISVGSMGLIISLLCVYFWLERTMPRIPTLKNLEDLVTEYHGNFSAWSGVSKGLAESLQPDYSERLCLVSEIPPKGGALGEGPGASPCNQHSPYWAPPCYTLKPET
Experiment: PathHunter IL-2 Cytokine Receptor assay, agonist mode, βγ cell line
Assay type: cell-based
Conditions: ratio of the EC50 values
Protocol: PathHunter cell lines were expanded from freezer stocks according to standard procedures. Cells were seeded in a total volume of 20 μL into white walled, 384-well microplates and incubated for the appropriate time prior to testing.
For agonist determination, cells were incubated with sample to induce response. Intermediate dilution of sample stocks was performed to generate 5× sample in assay buffer. About 5 μL of 5× sample was added to cells and incubated at 37° C. for 6 to 16 hours depending on the assay. Vehicle concentration was 1%.
Assay signal was generated through a single addition of 12.5 or 15 μL (50% v/v) of PathHunter Detection reagent cocktail for agonist and antagonist assays respectively, followed by a one hour incubation at room temperature. For some assays, activity was detected using a high sensitivity detection reagent (PathHunter Flash Kit) to improve assay performance. In these assays, an equal volume of detection reagent (25 or 30 μL) was added to the wells, followed by a one hour incubation at room temperature. Microplates were read following signal generation with a PerkinElmer Envision™ instrument for chemiluminescent signal detection.
Compound activity was analyzed using CBIS data analysis suite (ChemInnovation, CA). For agonist mode assays, percentage activity was calculated using the following Formula:
% Activity=100%×(mean RLU of test sample−mean RLU of vehicle control)/(mean MAX RLU control ligand−mean RLU of vehicle control).
A second cell line has been further engineered to express the IL-2Rα subunit. […] The assay was run in agonist mode to determine the EC50 of each test article, and comparison of dose-response curve profiles between IL2Rα positive and negative cell types allows determination of the contribution of IL2Rα to the observed activity.

Work on “P65_30kD: SEQ ID NO: 25: IL-2 (SEQ ID NO: 4) with P65 replaced by AzK click-conjugated to methoxy linear 30 kDa PEG [Compound P65_30kD]” yielded a βγ/αβγ ratio of 5.
